One substance from publication PMC8826744 can be followed below.

The test has as its target recombinant furin, biotinylated (UniProt P09958). The test can be described thus: BLI. For orientation: Biolayer interferometry detects binding as a change in optical thickness at a sensor tip.

Sequence of recombinant furin, biotinylated (P09958 27-794): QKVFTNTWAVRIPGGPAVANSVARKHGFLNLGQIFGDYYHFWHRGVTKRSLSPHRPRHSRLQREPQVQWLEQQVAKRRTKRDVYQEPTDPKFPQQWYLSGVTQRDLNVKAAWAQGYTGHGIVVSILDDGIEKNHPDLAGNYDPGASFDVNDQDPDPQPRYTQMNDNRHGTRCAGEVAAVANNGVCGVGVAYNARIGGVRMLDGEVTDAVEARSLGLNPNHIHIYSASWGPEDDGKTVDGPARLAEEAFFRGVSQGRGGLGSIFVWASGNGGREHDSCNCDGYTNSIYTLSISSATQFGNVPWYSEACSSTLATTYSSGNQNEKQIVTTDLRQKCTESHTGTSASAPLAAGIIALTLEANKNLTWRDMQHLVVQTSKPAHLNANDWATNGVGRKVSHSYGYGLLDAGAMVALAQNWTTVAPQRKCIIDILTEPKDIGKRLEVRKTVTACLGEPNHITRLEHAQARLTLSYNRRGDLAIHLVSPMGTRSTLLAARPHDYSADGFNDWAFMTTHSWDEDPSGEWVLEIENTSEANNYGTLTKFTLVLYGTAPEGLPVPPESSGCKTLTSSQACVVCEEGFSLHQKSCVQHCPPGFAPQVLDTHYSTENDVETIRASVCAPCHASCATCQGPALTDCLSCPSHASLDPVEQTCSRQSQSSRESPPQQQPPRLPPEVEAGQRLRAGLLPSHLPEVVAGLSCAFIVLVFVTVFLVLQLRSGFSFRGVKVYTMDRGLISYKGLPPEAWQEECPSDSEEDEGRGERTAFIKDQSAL

Consider farletuzumab-FuG1 (antibody), for which the fold reduction of koff against farletuzumab-cFuG1 came out at 10 fold.
